Results as given in patent US12508302B2, “Pharmaceutical composition providing mucolytic effect” (FRIMLINE PRIVATE LIMITED, priority 2022, dated 2025).

Test system: tracheobronchial secretion in rats
Assay: Mucolytic activity in rats: tracheobronchial secretion of fluorescein sodium (FINa)
Type: in vivo, rat (Swiss Albino Rats)
Conditions: for Percentage (%) Enhancement of FINa secretion compared to Normal: versus normal group (G1)
Method: The effect of the compositions of the present invention was studied in animals. For this study, screening effect of synergistic combination of compositions/formulations comprising N-Acetyl-L-Cysteine, Lactoferrin and additional active ingredients for mucolytic activity in rat was performed. The following trials were carried out:
Eighty-Four (84) rats including male and female (Swiss Albino Rats) divided into 14 groups (6 per group) were maintained in animal house in a light/dark atmosphere based on a 12 hour cycle having temperature and relative humidity in the range of 19 to 25±2° C. and 30-70%, respectively. To maintain the appropriate conditions, temperature and relative humidity were recorded three times daily. All animals were acclimatized for a minimum period of five days. Animals were maintained in the test setup for minimum 30 minutes once during the acclimatization period to reduce the stress. Animals were weighed on the day of receipt and observed daily for abnormalities if any. Detailed records of acclimatization were also maintained. Rats were housed 3 per cage in clean, sterilized Polypropylene cages. During complete experiments, animals were supplied with the standard certified rat pellet feed and drinking water treated by reverse osmosis ad libitum.
In order to evaluate the mucolytic activity in rats, eighty-four (84) rats were screened and divided into Fourteen (14) groups. For a comparative analysis, groups were divided and treated as below:
Tracheobronchial secretion in rats, expressed by the amount of fluorescein sodium (FINa) dye excreted into the respiratory tract, was measured by modification of methods published earlier.
Lactoferrin, Carotenoid, N-Acetyl-L-Cysteine or their combinations (G4-G14) were suspended in 1% Acacia. […]
The tracheobronchial lavage fluid (4.9±0.1 ml) was centrifuged (3500 rpm for 10 minutes) and the supernatant was transferred to STP B & L tubes. The fluorescence intensity of the supernatant was measured with a Genesys 20 spectrophotometer set at a wavelength of 510 nm (emission).

B1: Lactoferrin (protein, UniProt P02788 20-710, looked up)
Lactotransferrin: GRRRSVQWCAVSQPEATKCFQWQRNMRKVRGPPVSCIKRDSPIQCIQAIAENRADAVTLDGGFIYEAGLAPYKLRPVAAEVYGTERQPRTHYYAVAVVKKGGSFQLNELQGLKSCHTGLRRTAGWNVPIGTLRPFLNWTGPPEPIEAAVARFFSASCVPGADKGQFPNLCRLCAGTGENKCAFSSQEPYFSYSGAFKCLRDGAGDVAFIRESTVFEDLSDEAERDEYELLCPDNTRKPVDKFKDCHLARVPSHAVVARSVNGKEDAIWNLLRQAQEKFGKDKSPKFQLFGSPSGQKDLLFKDSAIGFSRVPPRIDSGLYLGSGYFTAIQNLRKSEEEVAARRARVVWCAVGEQELRKCNQWSGLSEGSVTCSSASTTEDCIALVLKGEADAMSLDGGYVYTAGKCGLVPVLAENYKSQQSSDPDPNCVDRPVEGYLAVAVVRRSDTSLTWNSVKGKKSCHTAVDRTAGWNIPMGLLFNQTGSCKFDEYFSQSCAPGSDPRSNLCALCIGDEQGENKCVPNSNERYYGYTGAFRCLAENAGDVAFVKDVTVLQNTDGNNNEAWAKDLKLADFALLCLDGKRKPVTEARSCHLAMAPNHAVVSRMDKVERLKQVLLHQQAKFGRNGSDCPDKFCLFQSETKNLLFNDNTECLARLHGKTTYEKYLGPQYVAGITNLKKCSTSPLLEACEFLRK
notes: multifunctional globular glycoprotein of the transferrin family, molecular mass about 80 kDa
Fluorescein Sodium (FINa) Secretion (dosed 30 minutes before i.v. FINa 300 mg/kg, tracheobronchial lavage one hour after administration, doses as Table 1, mean±SEM): 1.79 ± 0.04 μg/100 g/h | Percentage (%) Enhancement of FINa secretion compared to Normal (doses as Table 1): 25.17 ± 1% | Percentage (%) Enhancement of FINa secretion compared to Normal (doses as Table 1, listed as Lactoferrin): 25.17%
